Reference: patent US20120164688A1
Blank lines part the entries; values can stand above or below the substance they belong to.

Legend:
[1] = target: human nerve growth factor (NGF) (human) (UniProt P01138); experiment: BIACORE SPR; purified mAb
mouse NGF (mNGF) (mouse) [2] = target: mouse NGF (mNGF) (mouse) (UniProt P01139); experiment: BIACORE SPR; purified mAb
rat NGF (rNGF) (rat) [3] = target: rat NGF (rNGF) (rat) (UniProt P25427); experiment: BIACORE SPR; purified mAb
[4] = target: human nerve growth factor (NGF) (human) (UniProt P01138); experiment: cell-based or functional assay
[5] = target: human neurotrophin-3 (NT-3) (human) (UniProt P20783); experiment: cell-based or functional assay
Sequence of human neurotrophin-3 (NT-3) (human) (P20783 139-257 limits assumed): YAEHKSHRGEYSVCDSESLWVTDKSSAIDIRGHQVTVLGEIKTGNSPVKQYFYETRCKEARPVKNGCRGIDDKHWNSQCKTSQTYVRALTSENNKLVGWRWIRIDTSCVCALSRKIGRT

[6] = target: human nerve growth factor (NGF) (human) (UniProt P01138); experiment: BIACORE SPR; mAb captured, 20 nM NGF
[7] = target: human neurotrophin-3 (NT-3) (human) (UniProt P20783); experiment: BIACORE SPR; mAb captured, 20 nM NT-3
[8] = target: human neurotrophin-3 (NT-3) (human) (UniProt P20783); experiment: BIACORE; 20 nM NT-3 + 500 nM agent, % NT-3 bound to p75-hFc chip
[9] = target: human nerve growth factor (NGF) (human) (UniProt P01138); experiment: BIACORE blocking; % free NGF bound to TrkA-hFc chip
[10] = target: human neurotrophin-3 (NT-3) (human) (UniProt P20783); experiment: BIACORE; 20 nM NT-3 + 500 nM agent, % NT-3 bound to TrkB-hFc chip
[11] = target: human nerve growth factor (NGF) (human) (UniProt P01138); experiment: BIACORE SPR
mouse NGF (mNGF) (mouse) [12] = target: mouse NGF (mNGF) (mouse) (UniProt P01139); experiment: BIACORE SPR
rat NGF (rNGF) (rat) [13] = target: rat NGF (rNGF) (rat) (UniProt P25427); experiment: BIACORE SPR
[14] = target: human nerve growth factor (NGF) (human) (UniProt P01138); experiment: BIACORE SPR; complex dissociation half-life
[15] = target: human neurotrophin-3 (NT-3) (human) (UniProt P20783); experiment: BIACORE; 20 nM NT-3 + 500 nM agent, % NT-3 bound to TrkC-hFc chip
[16] = target: human nerve growth factor (NGF) (human) (UniProt P01138); experiment: BIACORE blocking; % free NGF bound to p75-hFc chip
[17] = target: human neurotrophin-3 (NT-3) (human) (UniProt P20783); experiment: BIACORE SPR; NT-3 1.25 nM to 40 nM
[18] = target: human nerve growth factor (NGF) (human) (UniProt P01138); experiment: BIACORE SPR; mAb captured, human NGF injected
[19] = target: human neurotrophin-3 (NT-3) (human) (UniProt P20783); experiment: BIACORE; 20 nM NT-3 + 500 nM agent, % NT-3 bound to TrkA-hFc chip
[20] = target: human neurotrophin-3 (NT-3) (human) (UniProt P20783); experiment: BIACORE; 20 nM NT-3 + 500 nM agent, % NT-3 bound to TrkC-hFc chip (reference)
[21] = target: human neurotrophin-3 (NT-3) (human) (UniProt P20783); experiment: BIACORE; 20 nM NT-3 + 500 nM agent, % NT-3 bound to TrkA-hFc chip (reference)
[22] = target: human nerve growth factor (NGF) (human) (UniProt P01138); experiment: BIACORE blocking; negative control, % free NGF bound to p75-hFc chip
[23] = target: human neurotrophin-3 (NT-3) (human) (UniProt P20783); experiment: BIACORE; 20 nM NT-3 + 500 nM agent, % NT-3 bound to p75-hFc chip (reference)
[24] = target: human neurotrophin-3 (NT-3) (human) (UniProt P20783); experiment: BIACORE; 20 nM NT-3 + 500 nM agent, % NT-3 bound to TrkB-hFc chip (reference)
[25] = target: human nerve growth factor (NGF) (human) (UniProt P01138); experiment: BIACORE blocking; negative control, % free NGF bound to TrkA-hFc chip

Sequence of human nerve growth factor (NGF) (human) (P01138 122-241 limits assumed): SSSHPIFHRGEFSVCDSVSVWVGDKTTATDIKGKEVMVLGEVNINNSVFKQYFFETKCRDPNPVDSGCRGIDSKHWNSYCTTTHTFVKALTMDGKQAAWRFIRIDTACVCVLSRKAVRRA
Sequence of mouse NGF (mNGF) (mouse) (P01139 122-241 limits assumed): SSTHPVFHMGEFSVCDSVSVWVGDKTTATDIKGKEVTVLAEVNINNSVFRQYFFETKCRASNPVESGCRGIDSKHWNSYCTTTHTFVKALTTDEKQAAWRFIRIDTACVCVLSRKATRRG
Sequence of rat NGF (rNGF) (rat) (P25427 122-241 limits assumed): as the sequence (P01139 122-241 limits assumed) above, with A40G, R50K, S61P, E94D, T117A counted along it

- Kd [1]: 1.25 pM
- t1/2 [1]: 35 h
- Kd (mouse NGF (mNGF) (mouse) [2]): 1.4 pM
- Kd (rat NGF (rNGF) (rat) [3]): 1.51 pM
- IC50 (pM), PC12 SRE-luciferase [4]: 4.9 pM
- MG87 IC50 [4]: < 186 pM
- PC12 IC50 [4]: 21 pM
- IC50, HEK293-TrkC SRE-luciferase [5]: 150000 to 200000 pM
- IC50, PC12 SRE-luciferase with 75 nM NT-3 [5]: 105000 pM
- Kd [6]: 1.3 pM
- Kd [7]: 1100 pM
- % binding [8]: 19%
- % Binding TrkA-hFc [9]: 10%
- % binding [10]: 8%
- Kd [11]: 1.25 pM
- Kd (mouse NGF (mNGF) (mouse) [12]): 1.4 pM
- Kd (rat NGF (rNGF) (rat) [13]): 1.5 pM
- t1/2 [14]: 35 h
- % binding [15]: 8%
- % Binding p75-hFc [16]: 16%
- Kd [17]: 1100 pM
- Kd [18]: 1.3 pM
- % binding [19]: 7%
Substance: humanized anti-human NGF monoclonal antibody E3 ("RN624") (tanezumab; CAS Registry No. 880266-57-9)

- % binding [20]: 100%
- % binding [21]: 100%
- % Binding p75-hFc [22]: 116%
- % binding [23]: 100%
- % binding [24]: 100%
- % Binding TrkA-hFc [25]: 116%
Substance: IgG1 control (AVASTIN®; Genentech, CA) (antibody)
